Residue numbers refer to the chain shown, from its start.
B1: clone 1052: rat IgM anti-TMEM-180 monoclonal antibody; variable regions SEQ ID NOs: 94 and 95 (antibody, V domains shown)
VH: MAVLVLLLCLVTFPSCVLSQVQLKESGPGLMQPSETLSLTCTVSGFSLTSNGVGWVRQPLGKGLVWMGTIWTGGGTNYNSGVQSRLSISRDTSKSQVFLKMNSLQPEDTGTYYCAREYMGFDYWGQGVMVTVSS
VL: MELISQVFVFLLLWLSGVYGNTVMTQSPTSMFTSVGDRVTMSCKASQNVGINVGWYQQKTGQSPKRLIYWASNRDTGVPDRFTGSGSGTDFTLTISNMQAEDPAIYYCLQHNSYPRTFGGGTKLELK
B2: clone 1105: rat IgM anti-TMEM-180 monoclonal antibody; variable regions SEQ ID NOs: 102 and 103 (antibody, V domains shown)
VH: B1 VH with T72S, G81A, S89T, Y118E, M119K, D122A, V128T, M129L
VL: B1 VL with T22I, F32S, T117A, K127R

Experiments:
[1] = tested on: cell lines derived from cancers (ATCC and JCRB); experiment: Reactivity of antibodies to cancer-derived cell lines by FACS (Table 23); format: binding; conditions: Cancer Type: Colon
Protocol: Cancer cells targeted for measurement were cultured in medium and then added to a V-bottom 96-well plate (Corning Incorporated) to a concentration of 1×10^5 cells/well. The plate was centrifuged for 3 minutes at 440×g and 4° C. followed by removing the supernatant, adding antibody-producing hybridoma culture supernatant or antibody solution to the cell pellet at 50 μL/well and suspending therein. After allowing to react for 45 minutes on ice, the plate was washed three times with a mixture of 0.1% BSA, 2 mM EDTA and PBS at 200 μL/well. The supernatant was removed and secondary antibody was added to the cell pellet at 50 μL/well followed by suspending the cells therein. ALEXAFLUOR 647@ (fluorescent compound) goat anti-rat IgG (H-L) (Life Technologies Corporation) was used for the secondary antibody after diluting 400-fold with a mixture of 0.1% BSA, 2 mM EDTA and PBS. After allowing to react for 45 minutes on ice, the plate was washed three times with a mixture of 0.1% BSA, 2 mM EDTA and PBS at 200 μL/well. After removing the supernatant, 50 ng/mL of propidium iodide, 0.1% BSA, 2 mM EDTA and PBS were added to the cell pellet at 250 µL/well followed by suspending therein. The cells stained in this manner were measured using a flow cytometer such as the Guava easyCyte 8HT (Merck Millipore Corporation) followed by analysis of the resulting data using FlowJO (Tomy Digital Biology Co., Ltd.). FACS analysis was carried out using colon cancer, brain tumor and hematologic cancer.
Cancer-detection rates were tested using monoclonal antibodies (the 669 antibody, 1052 antibody, 1105 antibody, and 1361 antibody).
In this Example, the reactivity of the antibodies to the cell lines derived from cancers which were obtained from ATCC and JCRB was analyzed by FACS.

[2] = tested on: cell lines derived from cancers (ATCC and JCRB); experiment: as above; format: binding

Molecule | Detection Sensitivity of Cancers, P/N [1] | Detection Sensitivity of Cancers, Percentage (%) [1] [%] | Detection Sensitivity of Cancers, P/N ([2]; Cancer Type: Bladder) | Detection Sensitivity of Cancers, Percentage (%) ([2]; Cancer Type: Bladder) | Detection Sensitivity of Cancers, P/N ([2]; Cancer Type: Brest) | Detection Sensitivity of Cancers, Percentage (%) ([2]; Cancer Type: Brest) | Detection Sensitivity of Cancers, P/N ([2]; Cancer Type: Gastric) | Detection Sensitivity of Cancers, Percentage (%) ([2]; Cancer Type: Gastric) | Detection Sensitivity of Cancers, P/N ([2]; Cancer Type: Pancreas) | Detection Sensitivity of Cancers, Percentage (%) ([2]; Cancer Type: Pancreas)
B1 | (3/10) | 30 | (2/4) | 50 | (3/6) | 50 | (2/8) | 25 | (4/9) | 44
B2 | (3/10) | 30 |  | 50 | (3/6) | 50 | (2/8) | 25 | (4/9) | 44
